Laboratory results as given in paper PMC11169542, “A probe for NIR-II imaging and multimodal analysis of early Alzheimer’s disease by targeting CTGF” (Nature Communications, 2024).
Ends that are not written are not given here.

Assays:
[1] = ICP-MS of Au in whole brains of DGC-injected mice; assay type: in vivo, APP/PS1 and WT mice; details: DGC-injected 3-month-old APP/PS1 mice vs WT, n = 3
Description: SH-SY5Y cell, maybe resulting in a similar perception of fluorescence intensity.
Reviewer 1: The ICP-MS of the whole brains from DGC-treated normal or APP/PS1 mice should be quantified, not only brain sections.
NIR-II imaging in Fig. 4 were frozen grinded and digested, and the content of Au in the whole brain was measured by ICP-MS. […]
which was consistent with the results of the NIR -II imaging.
Figure R7. The Au content in brains of DGC -injected 3-month-old APP/PS1 mice and the age- […]
hippo? Is there any experiment or literature to support the content of CTGF at different positions in different periods?
Response: According to previous reports, the expression pattern of CTGF was slightly different in several AD mouse models. The homing of DAG peptide was mainly seen in the cortex of the Tg2576 mice and in the hippocampus of the hAPP-J20 mice (Nat.
Commun. 2017, 8, 1403). A marked increase of CTGF levels in the brains of APP/PS1 transgenic mice were also observed, and is mainly located in the cortical (Mol.
(1 picture or pasted object on this page, not shown here)

CTGF = assay: Chromogenic DAB oxidation in DGC-labelled cells; assay type: cell-based; details: 40 μM DGC 4 °C overnight + DAB, Image Pro Plus
Description: To observe accurately the expression level of CTGF in cells with the naked eye, we optimized the conditions for labeling U87MG, SH-SY5Y, and CTX TNA2 cells stained with DGC. According to the study, the optimal incubation concentration of DGC (40 μM) was used to determine the optimal culture conditions using the DAB Horseradish Peroxidase Color Development Kit. After the cells were co-stained by DGC at 4 °C overnight, a DAB chromogenic agent was added to the cells. Since DGC can label CTGF proteins on the cells, when DAB chromogenic is added, DGC on the cells can catalyze DAB to produce an insoluble brown precipitate to attach to the cells.

[2] = Effect of DGC on hematology of mice; assay type: in vivo, C57BL/6J mice; details: for Mean hemoglobin content of red blood cells (MCH): in pg (unit assumed)
Description: In order to clarify the NIR-II signal in AD brains when in vivo imaging is arisen from the DGC probe that bound to CTGF, we selected 3-month-old APP/PS1 mice representing early-stage AD and the age-matched WT mice as control to performed ex vivo multimodal analysis of the brain sections. […] To exclude the influence of vascular retention, we emptied the cerebral vessels by cardiac perfusion and performed ex vivo imaging of the brains. […] For brain sections made from AD mice after tail vein injection of DGC, the red fluorescence observation and LA-ICP-TOF-MS of DGC, as well as a POD-like catalysis test were performed. […] In Fig. 6c, the colocalization of DGC (red fluorescence) and CTGF (green fluorescence) on the ex vivo brain sections confirmed the specificity of DGC targeting CTGF in vivo. To further identify the cellular target of DGC in the brain of APP/PS1 mice, we carried out immunofluorescence staining on the ex vivo brain sections after tail vein injection of DGC where cell-specific fluorescent antibodies for microglia (Iba 1), neurons (NeuN), vascular endothelial cell (CD31) and reactive astrocytes (GFAP) were applied. In Fig. 6d, […] co-localizes with GFAP-positive active astrocytes and CD31-positive microvessels, but not with neurons or microglia. […] The biosafety of DGC in C57BL/6J mice under the NIR-II imaging condition was evaluated by blood tests (blood cells and biochemical analysis) and organ pathological analysis (H&E staining).

CTX TNA2 cells = assay: Cytotoxicity of DGC (CCK-8); assay type: cell-based; design: key to Cell viability: viability relative to control cells (control = 1); details: for Cell viability: 24 h, CCK-8, normalized to control
Description: U87MG, SH-SY5Y, and CTX TNA2 cells were seeded into 96-well plates at a density of 5 × 10^3 cells per well and were incubated at 37 °C for 24 h. Then, the cells were treated with 5, 10, 20, 50, 100, and 500 µM DGC for 24 h. Next, 10 µL of a colorimetric Cell Counting Kit (CCK-8) reagent diluted with 100 µL medium was added to each well, and incubated for 30 min, The absorbance at 450 nm was measured using a microplate reader (Molecular Devices, San Jose, CA, USA). The relative viability was normalized to control cells. The experiment was performed in triplicates.

[3] = DGC group, mean of 3 mice, in 10^9/L (unit assumed)
[4] = DGC group, mean of 3 mice, in % (unit assumed)
[5] = DGC group, mean of 3 mice, in fL (unit assumed)
[6] = DGC group, mice 1, in fL (unit assumed)
[7] = DGC group, mice 2, in fL (unit assumed)
[8] = DGC group, mice 3, in fL (unit assumed)

## DGC: CTGF-targeting peptide-coated gold nanocluster: one Au26 gold nanocluster coated by eight DAG cyclic peptides, NIR-II and red fluorescence (CDAGRKQKC; also: cyclic peptide, ring not given here, eight peptides on one Au26 nanocluster via Cys Au-S bonds)
[1]
  Au content in whole brain, APP/PS1 vs age-matched WT: more than twice
CTGF; CTX TNA2 cells, replicate 1
  DAB chromogenic imaging intensity: 0.0128
CTGF; CTX TNA2 cells, replicate 2
  DAB chromogenic imaging intensity: 0.01748
CTGF; CTX TNA2 cells, replicate 3
  DAB chromogenic imaging intensity: 0.0191
CTGF; SH-SY5Y cells, replicate 1
  DAB chromogenic imaging intensity: 0.04369
CTGF; SH-SY5Y cells, replicate 2
  DAB chromogenic imaging intensity: 0.03714
CTGF; SH-SY5Y cells, replicate 3
  DAB chromogenic imaging intensity: 0.0465
CTGF; U87MG cells, replicate 1
  DAB chromogenic imaging intensity: 0.1444
CTGF; U87MG cells, replicate 2
  DAB chromogenic imaging intensity: 0.1042
CTGF; U87MG cells, replicate 3
  DAB chromogenic imaging intensity: 0.1075
[2]; C57BL/6J mice, 20 mg/kg DGC, n = 3, normal range 0.00 - 0.12
  Basophil granulocyte count (Bas#): 0.02 ± 0.01 109/L
[2]; C57BL/6J mice, 20 mg/kg DGC, n = 3, normal range 0.00 - 0.51
  Eosinophil granulocyte count (Eos#): 0.04 ± 0.02 109/L
[2]; C57BL/6J mice, 20 mg/kg DGC, n = 3, normal range 0.0 - 1.5
  Percentage of Basophil granulocyte (Bas%): 0.27 ± 0.06%
[2]; C57BL/6J mice, 20 mg/kg DGC, n = 3, normal range 0.0 - 7.5
  Percentage of eosinophil granulocyte (Eos%): 0.47 ± 0.23%
[2]; C57BL/6J mice, 20 mg/kg DGC, n = 3, normal range 0.04 - 1.40
  Monocytes count (Mon#): 0.25 ± 0.1 109/L
[2]; C57BL/6J mice, 20 mg/kg DGC, n = 3, normal range 0.9 - 18.0
  Percentage of monocytes (Mon%): 3.07 ± 0.84%
[2]; C57BL/6J mice, 20 mg/kg DGC, n = 3, normal range 6.5 - 50.0
  Percentage of neutrophil (Neu%): 13.2 ± 1.31%
[2]; C57BL/6J mice, 20 mg/kg DGC, n = 3, normal range 40.0 - 92.0
  Percentage of lymphocyte (Lym%): 83 ± 2.08%
[2]; DGC group, mean of 3 mice
  Mean concentration of red blood cell hemoglobin (MCHC): 315.67 ± 5.69
  Width of platelet distribution (PDW): 15.23 ± 0.25
  Mean hemoglobin content of red blood cells (MCH): 15.93 ± 0.25
[2]; [3]
  Basophil granulocyte count (Bas#): 0.02 ± 0.01
  Eosinophil granulocyte count (Eos#): 0.04 ± 0.02
  Lymphocyte count (Lym#): 6.65 ± 0.78
  Monocytes count (Mon#): 0.25 ± 0.1
  Neutrophil count (Neu#): 1.07 ± 0.24
  Platelet count (PLT): 1228.67 ± 179.01
  White blood cell count (WBC): 8.03 ± 1.12
[2]; DGC group, mean of 3 mice, in 10^12/L (unit assumed)
  Red blood cell count (RBC): 10.16 ± 0.42
[2]; [4]
  Coefficient of variation of red blood cell distribution width (RDW-CV): 13.13 ± 1
  Hematocrit (HCT): 51.2 ± 1.93
[2]; [5]
  Mean corpuscular volume (MCV): 50.4 ± 0.17
  Mean platelet volume (MPV): 5.53 ± 0.15
  Standard deviation of red blood cell distribution width (RDW-SD): 27.8 ± 2.1
[2]; DGC group, mean of 3 mice, in g/L (unit assumed)
  Hemoglobin (HGB): 161.67 ± 8.02
[2]; DGC group, mice 1
  Mean concentration of red blood cell hemoglobin (MCHC): 311
  Mean hemoglobin content of red blood cells (MCH): 15.7
[2]; [6]
  Mean corpuscular volume (MCV): 50.5
  Mean platelet volume (MPV): 5.7
[2]; DGC group, mice 2
  Mean concentration of red blood cell hemoglobin (MCHC): 322
  Mean hemoglobin content of red blood cells (MCH): 16.2
[2]; [7]
  Mean corpuscular volume (MCV): 50.2
  Mean platelet volume (MPV): 5.4
[2]; DGC group, mice 3
  Mean concentration of red blood cell hemoglobin (MCHC): 314
  Mean hemoglobin content of red blood cells (MCH): 15.9
[2]; [8]
  Mean corpuscular volume (MCV): 50.5
  Mean platelet volume (MPV): 5.5
CTX TNA2 cells; 5 μM (Au content), replicate 1
  Cell viability: 1.236
CTX TNA2 cells; 5 μM (Au content), replicate 2
  Cell viability: 1.185
CTX TNA2 cells; 5 μM (Au content), replicate 3
  Cell viability: 1.252
CTX TNA2 cells; 10 μM (Au content), replicate 1
  Cell viability: 1.248
CTX TNA2 cells; 10 μM (Au content), replicate 2
  Cell viability: 1.23
CTX TNA2 cells; 10 μM (Au content), replicate 3
  Cell viability: 1.328
CTX TNA2 cells; 20 μM (Au content), replicate 1
  Cell viability: 1.233
CTX TNA2 cells; 20 μM (Au content), replicate 2
  Cell viability: 1.3
CTX TNA2 cells; 20 μM (Au content), replicate 3
  Cell viability: 1.347
CTX TNA2 cells; 50 μM (Au content), replicate 1
  Cell viability: 1.269
CTX TNA2 cells; 50 μM (Au content), replicate 2
  Cell viability: 1.237
CTX TNA2 cells; 50 μM (Au content), replicate 3
  Cell viability: 1.251
CTX TNA2 cells; 100 μM (Au content), replicate 1
  Cell viability: 1.349
CTX TNA2 cells; 100 μM (Au content), replicate 2
  Cell viability: 1.363
CTX TNA2 cells; 100 μM (Au content), replicate 3
  Cell viability: 1.443
CTX TNA2 cells; 500 μM (Au content), replicate 1
  Cell viability: 1.758
CTX TNA2 cells; 500 μM (Au content), replicate 2
  Cell viability: 1.646
CTX TNA2 cells; 500 μM (Au content), replicate 3
  Cell viability: 1.62
CTX TNA2 cells; DGC incubation 24 h, CCK-8
  cytotoxicity: did not cause any obvious cytotoxicity
